assay: soluble on expression in E. coli; label from the status in PepcDB or PDB records

Soluble on expression in E. coli, not soluble:
MGSDKIHHHHHHMKLANQFNIAITPSGGRTGLSAGAVATNGEIVISMDKMNQILEFFPADRMVRVQAGVVTEQLQNYAEEQGMYYPVDFASAGSSQIGGNIGTNAGGIKVIKYGMTRNRVLGLTVVTGKGDILRLNKGMIKNATGYALQHLFIGGEGTLGLVTEAEIKLERQPQNLQVLVLGVPDFDAVMPVLHAFQKDIDLTAFEFFGELAMQKVLDRGHVQRPFETQCPFYVLLEFEAPYEPIIDKAMEIFEHCMEQGWVLDGVMSQSLDQVESLWRLREDISESIAPFIPYKNDISVLITHVPAFIREIDAIVQENYPDFEICWFGHIGDGNLHLNILKPENLTKDEFFAKCQVVNKYVFDTVKKYDGSISAEHGVGMTKKPYLEYSRSAEEIEYMKALKKVFDPKGIMNPGKLFDL
MARTAAALHILVKHKEQADDILAQLKKGAKFHVLAKKYSTCPSGKKGGDLGEFRQGQMVPAFDKACFQGEVLTPQLVKTKFGWHVVKVLYRT
MNFSIRVILLLTGFVSLAFSAPKFLTISDIHYGAENIAKDGQDTGKEFLDVTFKRFEELSQNVDFILHLGDLPTHSLFSIPKKEEYEQVVFHGLHEANPGQKPMFYITGNNDSLLGNYQPFSSDNKSPLNLALDWDGACAYCDGLIIDDTHMRKDGYYSSYVIPNNKEIILIALNSVQWTKTPVFLPKYPNQQRDAFVQLFWLEQQLKNHRAKQLLLAMHVPPGTAYNGNRFWHDIYLDRFLTLLDKYHQSYDQITILFSHSHMEEFRKIRLSDGSTIYAFSTPGISRAHHNNPGMKIFDLDKQMRVRNSTTYYTSDLYEWGNEYYQAMNTPDAIFPNCQNKTIPQCLDTLSPEQVCNNLEVGLFYGVKSTRVPYQGCIKTYQINLEHHHHHH
MGSDKIHHHHHHMFSRRFRRLSPRDIIGGDVTLRRPSVAEALAVASASFIASFYVSGETILLAAGLALGGLAIASSLPARAGRVFIAGIRLEFMIPGRIVEGEVRTGRLLVENRTLNPMVLKIILKPEEGLEVEPERAEVHAPPLSRRSISLVVKPRFGRYKLIASIEEARSPLGLWSLQPEQPQTAVEVLATPKPEVVSEDISVLTGPGSLDRGREGSGLDYRSFREYQPGDDPRSIEWKLTGRRGAPVVREVEGAESSKPVRLVLAIRPQHYRKPLYNSPYGAAARRLYTISMMLAEEGVRHSVLLPGARGFQELEISTPRDTLELGLALAIYTPEDPPIDYAYLIEDLARRDSPVIVVSPKGTLGEIVDKDRVYVLEV
MAHHHHHHMVSANKSTMPLSQGCAAAAGIPLEYFETRDHINHLISLGMPRVTPHTVPPKERVATLPVPPQQDHTELMLTISSGGSPQKSYFSTTESHLLTCGTLTPKTARKRPEIDSFDMEGAFAALVKRLESRVDEEDNKDMAS
MGSDKIHHHHHHMFIETLNLSHFRNFSEVALSPSPKINIITGDNGSGKTSLLEAIYLLGFGRSFRPGGFRQLIKEGNSGFTVFCRSQDYAIGVRRSTDGEQSLRLNGANVQRMSDVARLVPVQLLTPESVDILLEGPGQRRQFIDWGVFHVEHSFYSDWVAYTQLLKQRNSLLKQRSLPVREDRYWKEQLAYYGERISKSREKYLEELNDYIQELAKSFLSDVTMEVRLKSGWDTSQSLFDALESHTEKDKKYGFTSVGAHKADIKVIADGVEVKHRLSRGQLKTAITALKLAQGKHYQKIKRQPCIYLVDDLTSELDSKNQALLCRELENLDAQVFITAITGKQLSDKFQKSPRMFHVEHGVINE
MSLVDMVNRPYERAFEQHALANPDVLCISADLTSSCEIDKFRDNHPDQFLSMGMAEQNMMSFCGGLGLAGFRPFVHTFGVFTYRRPYDQLMASIAYPRRKVRIMGFLPGITTPGGMTHQAIEDIAVMRSMPNMTILETGDATEVESICAAADSIDGPVYCRVLRGSVPRLFDTPIKVGEMREISLGDDVLIVTAGITTEEAMRATRALEAAGVSVRHLHLHTIKPFDAGALLDHIGAVRGGVITLENHVTEGGIGSLVAEVMADNGIGKKLRRLGLKDTYAHGGSRAYLMRYYGLDALALTRGVEDLLGQPLGITEEDLAQARVEAVHSLAKAEGEGHHHHHH

Source: the DeepSol protein solubility set
